Paper PMC10810197, “A KDPG sensor RccR governs Pseudomonas aeruginosa carbon metabolism and aminoglycoside antibiotic tolerance” (Nucleic Acids Research, 2023)
Changes are numbered by the printed parent chain.

Columns and labels:
[1] = target: RccR (PA5438), RpiR family transcription factor of Pseudomonas aeruginosa PAO1 (Pseudomonas aeruginosa PAO1); test: crystal structure
[2] = target: T1, RccR H164A H164A (Pseudomonas aeruginosa PAO1) (UniProt Q9HTC8); test: EMSA; conditions: EMSA: 10 nM FAM-DNA, 20 mM Tris-HCl pH 8.5, 150 mM KCl, 5 mM MgCl2, 1 mM EDTA, 1 mM DTT, 0.8% Tween 20, 2.5% glycerol, on ice 30 min; 6% native PAGE, 0.5x TBE
T1 sequence: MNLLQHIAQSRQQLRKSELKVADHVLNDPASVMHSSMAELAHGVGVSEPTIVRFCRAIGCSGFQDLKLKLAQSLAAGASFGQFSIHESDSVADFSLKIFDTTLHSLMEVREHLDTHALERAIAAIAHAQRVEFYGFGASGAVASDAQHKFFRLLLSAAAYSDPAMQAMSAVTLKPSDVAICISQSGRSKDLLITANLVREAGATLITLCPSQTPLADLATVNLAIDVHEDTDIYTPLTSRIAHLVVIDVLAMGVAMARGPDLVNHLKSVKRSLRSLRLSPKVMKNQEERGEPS

[3] = target: T2, RccR H148A H148A (Pseudomonas aeruginosa PAO1) (UniProt Q9HTC8); test: EMSA; conditions: EMSA: 10 nM FAM-DNA, 20 mM Tris-HCl pH 8.5, 150 mM KCl, 5 mM MgCl2, 1 mM EDTA, 1 mM DTT, 0.8% Tween 20, 2.5% glycerol, on ice 30 min; 6% native PAGE, 0.5x TBE
T2 sequence: T1 sequence with H148A, A164H

[4] = target: T3, RccR WT (Pseudomonas aeruginosa PAO1) (UniProt Q9HTC8); test: EMSA; conditions: EMSA: 10 nM FAM-DNA, 20 mM Tris-HCl pH 8.5, 150 mM KCl, 5 mM MgCl2, 1 mM EDTA, 1 mM DTT, 0.8% Tween 20, 2.5% glycerol, on ice 30 min; 6% native PAGE, 0.5x TBE
T3 sequence: T1 sequence with A164H

[5] = target: T4, RccR S139A S139A (Pseudomonas aeruginosa PAO1) (UniProt Q9HTC8); test: EMSA; conditions: EMSA: 10 nM FAM-DNA, 20 mM Tris-HCl pH 8.5, 150 mM KCl, 5 mM MgCl2, 1 mM EDTA, 1 mM DTT, 0.8% Tween 20, 2.5% glycerol, on ice 30 min; 6% native PAGE, 0.5x TBE
T4 sequence: T1 sequence with S139A, A164H

| Substance | stoichiometry N [1] | binding [2] | binding [3] | binding [4] | binding [5] |
| --- | --- | --- | --- | --- | --- |
| RccR (PA5438), RpiR family transcription factor of Pseudomonas aeruginosa PAO1 (natural protein) | 4 |  |  |  |  |
| GGCTTGCTCCAGGGCGGAAAGGCTTCCAGAATCGGATGCCATAGGTGAGCGGCCGGCCTCGTGGGCGACCGCAGCTAATTCTTGGATGTTCTCCGGGGGTGTACCCGGCGACTTGTAGTTTTACTACAGATCAGTCTGAGAAACAGCCCTCTGGATACAATTTTTAGTAGTAAAACTACATTTCGATTGTCGCTGTCAGGCTATAAGGCCCGATGT (double strand) [aceE promoter] |  | no binding | no binding | binds | no binding |
| TGTTTGCCTCACTCTGCTCTAGACCAGCTCTGGACCCGGGCCGCACGGCCTTGTAGTCCGAGCCGCGGCATACTACATGATGCCGCGGGAAAAATCAGTGGTTACGCGTCGCGTTACGACTGGATGACGCTTCACGGTCACGTTGGCCAGGCTCAATGTTCGCAAAAAAACTGTACTTTGTTCCAGATAAATCTAAAAACAGTACACGATTTATCACGAGCCCA (double strand) [glcB promoter] |  |  |  | binds |  |
